# Reference: patent US20210188986A1
# Key:
# [1] = biological target: human OX40L (recombinant, soluble) (human) (UniProt P23510); assay: cell-based or functional assay
# [2] = biological target: human TNFα (recombinant, soluble) (human) (UniProt P01375); assay: cell-based or functional assay
# UniProt P01375, sequence (P01375 77-233 limits assumed): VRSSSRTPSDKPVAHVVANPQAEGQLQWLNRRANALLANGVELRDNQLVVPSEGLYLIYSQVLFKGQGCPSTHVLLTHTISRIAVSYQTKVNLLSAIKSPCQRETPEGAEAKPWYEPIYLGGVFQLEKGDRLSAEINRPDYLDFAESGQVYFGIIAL
# UniProt P23510, sequence (P23510 51-183 limits assumed): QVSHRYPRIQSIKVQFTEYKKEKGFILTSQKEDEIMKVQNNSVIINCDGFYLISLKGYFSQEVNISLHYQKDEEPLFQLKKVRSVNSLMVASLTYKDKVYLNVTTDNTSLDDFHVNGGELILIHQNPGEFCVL
Substance,"% inhibition, Jurkat OX40/TNF-NFκB reporter assay, combined hTNFα+OX40L stimulus [1]","IC50 (pM), Jurkat OX40/TNF-NFκB reporter assay, combined hTNFα+OX40L stimulus [1]","% inhibition, Jurkat OX40/TNF-NFκB reporter assay, combined hTNFα+OX40L stimulus [2]","IC50 (pM), Jurkat OX40/TNF-NFκB reporter assay, combined hTNFα+OX40L stimulus [2]"
monospecific anti-OX40L VHH ALX-0632,68%,3060 pM,,
monospecific anti-TNFα VHH ATN-103,,,66%,387 pM
